This passage reports EC50 and Kd results from patent EP4644419A1 (Hangzhou Zhongmeihuadong Pharmaceutical Co., Ltd., dated 2025).

In assay [1] the target is T1, monkey antigen protein (monkey CD112R, Uniprot ID: A0A2K5WVV8) (monkey, UniProt A0A2K5WVV8 41-171).
T1 sequence: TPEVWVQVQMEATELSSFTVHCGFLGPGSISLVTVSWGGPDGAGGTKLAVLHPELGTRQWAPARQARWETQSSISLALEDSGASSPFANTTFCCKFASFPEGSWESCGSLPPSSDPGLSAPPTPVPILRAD
The assay is described as follows: ELISA, monkey antigen protein (as Example 6.1).

The target of assay [2] is T2, human CD112R antigen protein huCD112R-His (Acro Biosysterm, PVG-H52H4) (human, UniProt Q6DKI7 41-171).
T2 construct: purchased; also called human antigen protein; not shown: His tag
T2 sequence (looked up): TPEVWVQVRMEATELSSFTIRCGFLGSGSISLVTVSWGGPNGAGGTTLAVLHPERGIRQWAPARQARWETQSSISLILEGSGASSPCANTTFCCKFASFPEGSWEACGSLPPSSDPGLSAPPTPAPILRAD
Briefly: ELISA, huCD112R-His coated on plate. In general terms: An ELISA detects its analyte on a solid surface through an enzyme-linked reagent.

In assay [3] the target is T2, human CD112R antigen protein …. Briefly: SPR (Biacore X100), antibody captured on Protein A chip, huCD112R-His as analyte, 1:1 Langmuir.

Positions count from the first letter of the chain named.

B1: C28 (antibody, human IgG1, kappa, V domains shown)
VH: QIQLQQSGPELVKPGPSVKISCKASGYTFTDYYINWVKQRPGQGLEWIGWIYPGSGYTKYNEKLKGRATLTVDTSSSTAYMQLSSLTSEDSAVYFCARDSFYAMDYWGQGTSVTVSS
VL: DIVMTQSQKFMSTTVGDRVSITCKASQNVGTAVAWYQQKPGQSPKLLIYSASNRYTGVPDRFTGSGSGTDFTLTITNMQSEDLADYFCLQYSSYLTFGAGTKLELKR
Take B1: the EC50 in assay [1] turned out to be 0.054 nM; in assay [2], 0.049 nM.

B2: C31 (antibody, human IgG1, kappa, V domains shown)
VH: B1 VH with P16A, N35A, P53L, Y57H, K59M, K63N, L64F, R67K
VL: B1 VL with T76S, L89Q, S93T
Regarding B2, the EC50 in assay [1] was 0.12 nM; in assay [2] it was 0.038 nM.

B3: C114 (antibody, human IgG1, kappa, V domains shown)
VH: QVQLQQSGAELVRPGTSVKMSCKAAGYTFTNSWINWVKQRPGHGLEWIGDIYPGNTFPNYNEKFKGKATLTADTSSSTAYMQLSSLTSEDSAVYYCTGGYFDVWGTGTTVTVSS
VL: DIVMTQSPSSLSVSAGEKVTMSCKSSQSLLNSGNQKNFLAWYQQKPGQPPKLLIFGASTRQSGVPDRFTGSGSGTDFTLTISSVQAEDLAVYYCQNDHSYPYTFGGGTKLEMKR
In the case of B3, the results for the EC50 in assay [1] and in assay [2] were 0.077 nM and 0.042 nM, respectively. Moreover, binding in assay [3] was put at a Kd of 0.0356 nM.

B4: C120 (antibody, human IgG1, kappa, V domains shown)
VH: EVQLQQSGPEVVKPGASVKISCKASGNTLTDYFINWVKQSHGKNLEWIGDINPDNGAGNYNQKFKGKATLTVDKSSGTAFMGLRSLTSEDSAVYYCATLYFDYWGQGTTLTVSS
VL: DIVMTQSPSSLSVSTGEKVTMSCRSSQSLLNSGNQKNYLAWYQQKPGQPPKLLIYGASTRESGVPDRFTGSGSGTDFTLTISSVQAEDLAIYYCQNAHTSPYTFGGGTRLEIKR
On to B4, for which the EC50 in assay [1] is 0.062 nM; in assay [2], 0.035 nM. This molecule also returned a Kd in assay [3] of 0.0769 nM.

B5: C145 (antibody, human IgG1, kappa, V domains shown)
VH: EVQLQQSGPEVVKPGASVRISCKASGNTFTDFFINWVKQSHGKSLEWIGDVNPDSNGANYNQKFKGKATLTVDKSSGTAFMGLRSLTSEDSAVYYCATLFFDNWGQGTTLTVSS
VL: B4 VL with S12N, T15A, R24K, T78I, I91L, T99S, R109K
In the case of B5, the EC50 in assay [1] turned out to be 0.042 nM; in assay [2], 0.038 nM.

B6: C125 (antibody, human IgG1, kappa, V domains shown)
VH: EVKLVESGGGLVQPGGSLKLSCAASGFTFSSYTMSWVRQTPEKRLELVAELSNSGGSFHYPDNVKGRFTISRDNAKNTLYLQMSSLKSEDTAMYYCARHNWDVYAMDYWGQGTSVTVSS
VL: DIQMSQSPASLSASVGETVTITCRASENVNSYLAWYQQKQGRSPQFLVYNAQTLAEGVPSRFSGGGSGTQFSLKINSLQPEDFGSYYCQHHYGNPTFGGGTKLEIKR
Regarding B6, the EC50 stood at 0.079 nM in assay [1] and 0.049 nM in assay [2].

B7: C39 (antibody, human IgG1, kappa, V domains shown)
VH: QAYLQQSGAELVRPGASVKMSCKASGYTFTSYNIHWVKQTPRQGLEWIGAIYPGNADISYNQKFRDKATLTVDKSSSTAYMQLSSLTSEDSAVYFCAKPLRIYAMDCWGQGTSVTVSS
VL: DIVMTQSQKFMSTSVGDRVSVTCKASQNVGTNVAWYQQKPGQSPKALIYSASYRYSGVPDRFTGSGSGTDFTLTISNVQSEDLADYFCQQYNSRPLTFGGGTKLEIKR
Take B7: the figures for the EC50 in assay [1] and in assay [2] were 0.141 nM and 0.691 nM, respectively.

B8: C36 (antibody, human IgG1, kappa, V domains shown)
VH: QIQLVQSGPELKKPGETVKISCKASGYTFTTYGMSWVKQAPGKGLKWMGWINTYSGVPTYADDFKGRFAFSLETSASNAYLQINNLKNEDTATYFCARELPFTTIIGTKDYWGQGTTLTVSS
VL: DIVLIQSPATLSVTPGDSVSLSCRASQFISNNLHWYQQKSHESPRLLIKYASQSISGIPSRFSGGGSGTDFTLTVNSVETEDFGMYFCQQSNSWPHTFGGGTKLEIKR
In the case of B8, the EC50 was determined as 0.101 nM in assay [1] and 0.219 nM in assay [2].

B9: C22 (antibody, human IgG1, kappa, V domains shown)
VH: EVQLQQSGPEPVKPGASVKISCKASGYTFTDYNIHWVRQSHGKSLEWIGYIYPYNGGAGYNQKFKSKATLTVDSSSSTAYMELRSLTSEDSAVYYCAREELRRDYGMDYWGQGTSVTVSS
VL: DIQMTQSPASLSASVGETVTITCRASENIYSYLAWYQQKQGKSPQLLVYNAKTLAEGVPSRFSGSGSGTQFSLKINSLQPEDFGSYYCQHHYGTPYTFGGGTKLETKR
For B9, the values for the EC50 in assay [1] and in assay [2] were 0.125 nM and 0.029 nM, respectively.

B10: C115 (antibody, human IgG1, kappa, V domains shown)
VH: EVQLQQSGAELVKPGASVKLSCTASGFNIEDTYIHWVKRRPEQGLEWIGGIDPAIGNTLYASKFQDMATITADTSSSTAYMQLSSLTSGDTAVYYCARERVYSNTLYYAMDYWGQGTSVTVSS
VL: DIVLTQSPASLVVSLGQRATISCRASKSVSISGYSYMHWYQQKPGQPPKLLIYLASNLESGVPARFSGSGSGTDFTLNIHPVEAEDAATYYCQHSRELPPTFGGGTNLEIKR
As for B10, the EC50 in assay [1] was 0.034 nM; in assay [2], 0.029 nM. Besides, the Kd in assay [3] was determined as 0.222 nM.

B11: C101 (antibody, human IgG1, kappa, V domains shown)
VH: EVQLQQSGPELVKPGSSVKISCEASGFTFADYNVDWVKQSHGKSLEWIGAINPNDGGTSYNQKFEGKATLTVDKSSTTAYMELRSLTSEDSAVYYCARWVNNDWYFDVWGTGTTVTVSS
VL: DIVMTQSQKFMSTSVGDRVSITCKASQNVRSAVDWYQQKPGQSPKTLIHSASNRHTGVPDRFTGSGSGTDFTLTISNIQSEDLADYFCLQHWNYPYTFGGGTKLEVKR
With B11, the half-maximal effective concentration (EC50) in assay [1] stood at 0.085 nM; in assay [2] it was 0.043 nM. The Kd in assay [3] turned out to be 0.0392 nM.

B12: C111 (antibody, human IgG1, kappa, V domains shown)
VH: QVQLQQSGPELARPGASVKLSCKASGYTLTSHGISWVKQRTGQGLEWIGEIYPGSESPYYSEKFKGKATLTADKSSNIAYMQLSSLTSEDSAVYFCARSDYSDYWAMDYWGQGTSVTVSS
VL: B11 VL with F10C, D34A, H49Y, S50L, S76T, I78V, Y96W, K103E, V106I
Consider B12, for which the EC50 is 0.074 nM in assay [1] and 0.036 nM in assay [2].

B13: C113 (antibody, human IgG1, kappa, V domains shown)
VH: EVQLQQSGPELVKPGSSVKISCKASGYTFTDYNLDWMKQSHGSSLEWIGAMSPNNGATSYNQKFKGKATLTVDKSSSTAYMELRSLTSEDSAVYYCARWDSNSWYFDVWGTGTTVTVSS
VL: B11 VL with N28I, S31T, P40S, T46A, H49Y, N53T, S76D, I78V, D85E, V106I
Consider B13, for which the EC50 in assay [1] is 0.104 nM; in assay [2], 0.038 nM.

B14: C105 (antibody, human IgG1, kappa, V domains shown)
VH: EVQLQQSGPELVKPGSSMKISCKASGYTFTDYSMDWVKQSHGKSLEWIGAINPNNGGTSYNQKFKDKATLTVDRSSSTAYMELRSLTSEDSAVYYCARWDSDYWYFDVWATGTTVTVSS
VL: B11 VL with S31T, T46A, H49Y, I78V, V106I
As to B14, the results for the EC50 in assay [1] and in assay [2] were 0.065 nM and 0.021 nM, respectively. This molecule showed a Kd in assay [3] of 0.716 nM.

B15: C146 (antibody, human IgG1, kappa, V domains shown)
VH: B11 VH with F27Y, A79V
VL: B11 VL with N53S
As for B15, the values for the EC50 in assay [1] and in assay [2] were 0.074 nM and 0.036 nM, respectively.

B16: C23 (antibody, human IgG1, kappa, V domains shown)
VH: QVQLQQSGPELVKPGTSVKISCKASGYTFTDYYINWVKQRPGQGLEWIGWIFPGSGNTYYNEKFKGRATLTVDKSSSTAYMLLSSLTSEDSAVYFCARDGGLRGPFDYWGQGTTLTVSS
VL: DIQMTQSPSSLSASLGGKVTITCKASQDINKYIAWFQHKPGKGPRLLIHFTSTLQSGIPSRFSGSGSGGDYSFSISNLEPEDIATYYCLQYDYLYTFGGGTTLEIKR
Regarding B16, the EC50 in assay [1] is 0.125 nM; in assay [2], 0.06 nM.

B17: C56-2 (antibody, human IgG1, kappa, V domains shown)
VH: EVQLVESGGGLVKPGGSLKLSCAASGFTFSDYALSWVRQTPEKRLEWVATIRDGGSYTYYSDNEKGRFTISRDNAKNNLYLQMSHLRSEDTAMYYCTRDQVNRGWFTYWGQGTLVTVSA
VL: QVILTQSPAIMSASLGERVTMTCSASSSVSSSYFHWFQQKPGSSPKLWIYSTSNLASGVPPRFSGSGSGTSYSLTISSMEAEDAATYYCHQHHRSPLTFGAGTKLELKR
Take B17: the EC50 in assay [1] came out at 0.044 nM; in assay [2], 0.032 nM.

B18: C59 (antibody, human IgG1, kappa, V domains shown)
VH: B17 VH with D31G, R87K
VL: B17 VL
Consider B18, for which the values for the EC50 in assay [1] and in assay [2] were 0.049 nM and 0.044 nM, respectively.

B19: C136 (antibody, human IgG1, kappa, V domains shown)
VH: DVQLVESGGGLVKPGGSLKLSCAASGFSFSENYMYWVRQTPEKRLEWVATISDGASYTYYPDNVKGRFTISRDTAKNNLYLQMSHLKSEDTAMYYCTRDELIAPFAYWGQGTLVTVSA
VL: DIVMTQSHKFMSTSVGDRVSITCKASQDVGTAVAWFQQKPGQSPKLLIYWASTRHTGVPDRFTGSGSGTDFTLTISNVQSEDLADYFCQQYNSYPWTFGGGTKLEIKR
Turning to B19, the concentration giving a half-maximal response (EC50) in assay [1] stood at 0.06 nM; in assay [2] it was 0.039 nM.

For orientation: EC50 means the concentration at which the effect is half-maximal. The Kd is the free concentration of one partner at which half of the binding sites on the other are occupied at equilibrium, for simple one-to-one binding.
